Kd, koff and kon data for four molecules are collected here from patent US20160068595A1 (DEVELOPMEN CENTER FOR BIOTECHNOLOGY, published 2016).

For test [1], the target named is T1, human IL-20 (interleukin-20), recombinant (human, UniProt Q9NYY1 25-176).
T1 construct: Analyte in the BIAcore assay and stimulus (300 pM) in the BaF3 proliferation assay; also called hIL-20; human cytokine IL20
T1 sequence (looked up): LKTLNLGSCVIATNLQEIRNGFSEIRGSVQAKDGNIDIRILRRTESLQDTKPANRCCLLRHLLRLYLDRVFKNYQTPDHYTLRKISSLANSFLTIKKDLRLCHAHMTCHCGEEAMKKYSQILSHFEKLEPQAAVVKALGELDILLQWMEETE
Nature of the test: SPR, BIAcore T100; antibody captured on anti-human IgG CM5 chip, IL-20 as analyte, 1:1 model. The procedure: The human IL-20-binding kinetics of each purified anti-IL-20 antibody was estimated by surface plasmon resonance measurements using the BIAcore T100 biosensor system. The anti-IL-20 Ab was captured on an anti-human IgG immobilized CM5 sensor chip. The immobilized level of anti-human IgG was about 9,000-10,000 RU and the capture level of anti-IL-20 antibody was about 350-400 RU. Binding was carried out at constant flow rates of 30 μL/min of IL-20 at various dilutions in HEPES buffered saline (BIA certified) for 60 seconds. Dissociations were carried out by passing through HEPES buffer for 480 seconds. Regeneration of the surface was carried out by […] 10 mM Glycine pH 2.0/1.5 (50:50) for 40 seconds.
The IL-20 affinity of each of the anti-IL-20 antibodies were calculated from an affinity binding curve fit using the predefined model (1:1 binding) provided by Biacore T100 evaluation software 2.0.

The target of test [2] is T1, human IL-20 (interleukin-20), …. Nature of the test: binding kinetics of CDR mutants; method not named.

Where a chain is given by its changes, count along the chain named.

B1: mouse anti-IL-20 monoclonal antibody 7E (antibody, V domains shown)
VH: ELKLEESGGGLVQPGGSMKLSCAASGFTFSDAWMDWVRQSPEKGLEWIAEIRSKANNYATYFAESVKGRFTISRDDSKSGVYLQMNNLRAEDTGIYFCTKLSLRYWFFDVWGAGTTVTVSS
VL: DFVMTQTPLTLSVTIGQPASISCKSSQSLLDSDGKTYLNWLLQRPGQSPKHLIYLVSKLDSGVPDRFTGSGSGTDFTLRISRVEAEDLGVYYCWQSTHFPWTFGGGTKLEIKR
notes: Mouse monoclonal antibody; The BIAcore method captures antibody on anti-human IgG; also called mAb 7E; mAb E7
As for B1, in test [1], the Kd stood at 0.781 nM, the koff was 0.000711 s⁻¹ and the kon is 911000 M⁻¹ s⁻¹.

B2: FLB35 (HH12 variant) (antibody, V domains shown)
VH: EVQLQESGGGLVQPGGSLRLSCAASGFTFSDAWMDWVRQAPGKGLEWVGEIRSKANNYATYFAESVKGRFTISRDDSKNSLYLQMNSLKTEDTGVYYCTKLDLRYWFFDVWGQGTLVTVSS
VL: DIQMTQSPLSLSVTPGQPASISCKSSQSLLDYDGKTYLNWYQQKPGQSPQLLIYLVSKLDSGVPDRFSGSGSGTDFTLKISRVEAEDVGVYYCWQSTLFPWTFGQGTKVEIKR
For the molecule B2, in test [2], the Kd worked out at 0.437 nM, the koff stood at 0.000431 s⁻¹ and the kon stood at 988000 M⁻¹ s⁻¹.

B3: FLB67 (HH12 variant) (antibody, V domains shown)
VH: B2 VH with D102S, R104Q
VL: B2 VL with L55Q, L98H
On to B3, for which, in test [2], the Kd stood at 0.803 nM, the koff amounted to 0.000713 s⁻¹ and the kon is 888000 M⁻¹ s⁻¹.

B4: FLB35(S) (FLB35 with Ser at CDRL1 position 27E) (antibody, V domains shown)
VH: B2 VH
VL: B2 VL with Y32S
Take B4: in test [2], the Kd was found to be 4.03 nM, the koff was found to be 0.00283 s⁻¹ and the kon amounted to 703000 M⁻¹ s⁻¹.
